Measured values reported in patent US20230048360A1 (EUREKA THERAPEUTICS, published 2023).

B1: #39 GPC3A L2K (bispecific antibody)
tandem di-scFv: SYVLTQPPSVSVAPGKTARITCGGNNIGSKSVHWYQQKPGQAPVLVIYYDSDRPSGIPERFSGSNSGNTATLTISRVEAGDEADYYCQVWDSSSDHWVFGGGTKLTVLGSRGGGGSGGGGSGGGGSLEMAQVQLVQSGGGLVHPGGSLRLSCAGSGFTFSSYAMHWVRQAPGKGLEWVSAIGTGGGTYYADSVKGRFTISRDNAKNSLYLQMNSLRAEDTAVYYCARYGRKSIDAWGQGTLVTVSSTSGGGGSDVQLVQSGAEVKKPGASVKVSCKASGYTFTRYTMHWVRQAPGQGLEWIGYINPSRGYTNYADSVKGRFTITTDKSTSTAYMELSSLRSEDTATYYCARYYDDHYCLDYWGQGTTVTVSSGEGTSTGSGGSGGSGGADDIVLTQSPATLSLSPGERATLSCRASQSVSYMNWYQQKPGKAPKRWIYDTSKVASGVPARFSGSGSGTDYSLTINSLEAEDAATYYCQQWSSNPLTFGGGTKVEIKHHHHHH
notes: also called GPC3A-39 L2K
B2: #51 GPC3A L2K (bispecific antibody)
tandem di-scFv: QAVLTQPSSASGAPGQRVTISCTGGSSNIGAGYDVHWYQQLPGTAPKLLIYGNSNRPSGVPDRFSGSKSGTSASLAITGLQAEDEADYYCQSYDSSLSGYVFGTGTKVTVLGSRGGGGSGGGGSGGGGSLEMAQVQLVQSGAEVKKPGSSVKVSCKASGGAFSSYAISWVRQAPGQGLEWMGGIIPIFGTANYAQKFQGRVTITADESTSTAYMELSSLRSEDTAVYYCARMLYLSGRYYWDSWGQGTLVTVSSTSGGGGSDVQLVQSGAEVKKPGASVKVSCKASGYTFTRYTMHWVRQAPGQGLEWIGYINPSRGYTNYADSVKGRFTITTDKSTSTAYMELSSLRSEDTATYYCARYYDDHYCLDYWGQGTTVTVSSGEGTSTGSGGSGGSGGADDIVLTQSPATLSLSPGERATLSCRASQSVSYMNWYQQKPGKAPKRWIYDTSKVASGVPARFSGSGSGTDYSLTINSLEAEDAATYYCQQWSSNPLTFGGGTKVEIKHHHHHH
notes: also called GPC3A-51 L2K
B3: GPC3A-34 L2K (bispecific antibody)
chain: QPVLTQPPSASGTPGQRVTISCSGSSSNIGSNNVIWYQQLPGAAPKLLIYSNHRRPSGVPDRFSGSRSGTSASLAISGLQSEDEADYYCAAWDDSLDGYLFGTGTKVTVLGSRGGGGSGGGGSGGGGSLEMAQVQLQQWGAGLLKPSETLSLTCAVYGGSFSGYYWSWIRQPPGKGLEWIGEINHSGSTNYNPSLKSRVTISVDTSKNQFSLELSSVTAADTAVYYCARGYGGRFDYWGQGTLVTVSSTSGGGGSDVQLVQSGAEVKKPGASVKVSCKASGYTFTRYTMHWVRQAPGQGLEWIGYINPSRGYTNYADSVKGRFTITTDKSTSTAYMELSSLRSEDTATYYCARYYDDHYCLDYWGQGTTVTVSSGEGTSTGSGGSGGSGGADDIVLTQSPATLSLSPGERATLSCRASQSVSYMNWYQQKPGKAPKRWIYDTSKVASGVPARFSGSGSGTDYSLTINSLEAEDAATYYCQQWSSNPLTFGGGTKVEIKHHHHHH
notes: also called anti-GPC3xCD3 di-scFv derived from GPC3A-34
B4: GPC3A-45 L2K (bispecific antibody)
chain: QSVLTQPPSVSGTPGQRVIISCPGSTSNIGTNTVNWYQQFPGTAPKLLIYSNNQRPSGVPDRFSGSKSGTSASLAISGLQSEDEADYYCAAWDDSLNGVVFGGGTKLTVLGSRGGGGSGGGGSGGGGSLEMAQMQLVQSGGGLVKPGGSLRLSCAASGFTFSDYYMSWIRQAPGKGLEWVSYISSSGSTIYYADSVKGRFTISRDNAKNSLYLQMNSLRAEDTAVYYCARASDLYGDWGQGTLVTVSSTSGGGGSDVQLVQSGAEVKKPGASVKVSCKASGYTFTRYTMHWVRQAPGQGLEWIGYINPSRGYTNYADSVKGRFTITTDKSTSTAYMELSSLRSEDTATYYCARYYDDHYCLDYWGQGTTVTVSSGEGTSTGSGGSGGSGGADDIVLTQSPATLSLSPGERATLSCRASQSVSYMNWYQQKPGKAPKRWIYDTSKVASGVPARFSGSGSGTDYSLTINSLEAEDAATYYCQQWSSNPLTFGGGTKVEIKHHHHHH
B5: GPC3A-37 L2K (bispecific antibody)
chain: QSVLTQPPSVSAAPGQRVTISCSGTRSNIGSDYVSWYQHLPGTAPKLLVYGDNLRPSGIPDRFSASKSGTSATLGITGLQTGDEADYYCGTWDYTLNGVVFGGGTKLTVLGSRGGGGSGGGGSGGGGSLEMAQVQLVESGGGLVQPGGSLRLSCAASGFTFSSYAMSWVRQAPGKGLEWVSVIYSGGSSTYYADSVKGRFTISRDNSKNTLYLQMNSLRAEDTAVYYCARTSYLNHGDYWGQGTLVTVSSTSGGGGSDVQLVQSGAEVKKPGASVKVSCKASGYTFTRYTMHWVRQAPGQGLEWIGYINPSRGYTNYADSVKGRFTITTDKSTSTAYMELSSLRSEDTATYYCARYYDDHYCLDYWGQGTTVTVSSGEGTSTGSGGSGGSGGADDIVLTQSPATLSLSPGERATLSCRASQSVSYMNWYQQKPGKAPKRWIYDTSKVASGVPARFSGSGSGTDYSLTINSLEAEDAATYYCQQWSSNPLTFGGGTKVEIKHHHHHH
notes: also called anti-CD3/anti-GPC3 BsAb
B6: GPC3A-55 L2K (bispecific antibody)
chain: QPVLTQPPSVSVAPGKTARITCGGNNIGSKSVHWYQQKPGQAPVLVIYYDSDRPSGIPERFSGSNSGNTATLTISRVEAGDEADYYCQVWDSSSDHYVFGTGTKVTVLGSRGGGGSGGGGSGGGGSLEMAQVQLVQSGAEVKKPGASVKVSCKASGYTFTSYYMHWVRQAPGQGLEWMGIINPSGGSTSYAQKFQGRVTMTRDTSTSTVYMELSSLRSEDTAVYYCARWHGGPYDYWGQGTLVTVSSTSGGGGSDVQLVQSGAEVKKPGASVKVSCKASGYTFTRYTMHWVRQAPGQGLEWIGYINPSRGYTNYADSVKGRFTITTDKSTSTAYMELSSLRSEDTATYYCARYYDDHYCLDYWGQGTTVTVSSGEGTSTGSGGSGGSGGADDIVLTQSPATLSLSPGERATLSCRASQSVSYMNWYQQKPGKAPKRWIYDTSKVASGVPARFSGSGSGTDYSLTINSLEAEDAATYYCQQWSSNPLTFGGGTKVEIKHHHHHH
B7: anti-GPC3 mIgG1 clone A-58 (antibody, V domains shown)
VH: QVQLVQSGADVRKPGASVKVSCKASGYTFASHGISWVRQAPGQGLEWLGWISPYTGNTNYAQKFQGRVTMATDTSTSTAYMELRSLRSDDTAIYYCARGKRTLASCFDYWGQGTLVTVSS
VL: QSVLTQPPSVSVAPGKTARITCGGNNIGSKSVHWYQQKPGQAPVLVVYDDSDRPSGIPERFSGSNSGNTATLTISRVEAGDEADYYCQVWDSSSDHVFGTGTKVTVLG
notes: Fused to mouse IgG1 heavy chain and light chain constant regions; also called GPC3A mIgG1 clone A-58
B8: anti-GPC3 mIgG1 clone A-46 (antibody, V domains shown)
VH: QVQLVQSGAEVKKPGASVTVSCKASGYRFSNYGVSWVRQAPGQGLEWMGWISGSNGNTNYAQKFLGRVTMTTDTSTTTAYMELSSLRSDDTAVYYCARGNRRYYSPIIDPWGQGTLVTVSS
VL: QAVLTQPPSVSGTPGQRVTISCSGSSSNFGSNTVHWYQQVPGTAPKLLIFSNTQRPSEIPDRFSGSKSGTSASLAISGLQSEDEADYYCAAWDDSLTGVVFGGGTKLTVLG
notes: Fused to mouse IgG1 heavy chain and light chain constant regions; also called GPC3A mIgG1 clone A-46
B9: anti-GPC3 mIgG1 clone A-56 (antibody, V domains shown)
VH: QVQLQQSGAEVKKFGASVKVSCKASGYSFNDYYIHWVRQAPGQGLEWMGWINPNNGDTKYEKKWQGRVTMTRDTSITTAYMELSSLRSDDTAVYYCARFSTHNWWWPTYDYWGQGTLVTVSS
VL: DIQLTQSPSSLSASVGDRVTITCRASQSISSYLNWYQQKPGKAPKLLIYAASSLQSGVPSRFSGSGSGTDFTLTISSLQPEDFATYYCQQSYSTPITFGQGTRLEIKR
notes: Fused to mouse IgG1 heavy chain and light chain constant regions
B10: anti-GPC3 mIgG1 clone A-39 (antibody, V domains shown)
VH: QVQLVQSGGGLVHPGGSLRLSCAGSGFTFSSYAMHWVRQAPGKGLEWVSAIGTGGGTYYADSVKGRFTISRDNAKNSLYLQMNSLRAEDTAVYYCARYGRKSIDAWGQGTLVTVSS
VL: SYVLTQPPSVSVAPGKTARITCGGNNIGSKSVHWYQQKPGQAPVLVIYYDSDRPSGIPERFSGSNSGNTATLTISRVEAGDEADYYCQVWDSSSDHWVFGGGTKLTVLG
notes: also called anti-GPC3 mIgG1 A-39

Biological target: T1, cell surface-bound human GPC3 on GPC3+ HepG2 cells (human, UniProt P51654 25-560, GPI anchor and heparin sulfate side chains, as the filing describes native GPC3)
T1 construct: Endogenous GPC3 of the HepG2 line; also called Glypican 3; native GPC3
Assay: FACS on GPC3+ HepG2 cells, labelled on the sheet GPC3A L2K against control L2K; control L2K median 93.8; axis PE-A
Method: APC-conjugated anti-His tag mouse antibody (R&D Systems) was added in a volume of 100 μl, a 20-fold dilution of 5% FBS in PBS and 0.05% NaN₃ and incubated for 1 hour at 4° C. in the dark, then washed twice with PBS. The cells were fixed in 3-fold dilution of fixation buffer (BioLegend) in PBS in a volume of 150 μl.

Median : PE-A | Binder
6380 | B1
12200 | B2

Biological target: T1, cell surface-bound human GPC3 on GPC3+ …
Assay: apparent Kd from FACS on GPC3+ HepG2 cells
Method: (§1) APC-conjugated anti-His tag mouse antibody (R&D Systems) was added in a volume of 100 μl, a 20-fold dilution of 5% FBS in PBS and 0.05% NaN₃ and incubated for 1 hour at 4° C. in the dark, then washed twice with PBS. The cells were fixed in 3-fold dilution of fixation buffer (BioLegend) in PBS in a volume of 150 μl. As a separate control, HepG2 cells were also incubated with APC-conjugated anti-His tag mouse antibody (R&D Systems) in the absence of any L2K bispecific antibody.

Kd | Binder
2 nM | B3
2.4 nM | B4
0.92 nM | B5
0.86 nM | B6

Biological target: T1, cell surface-bound human GPC3 on GPC3+ …
Assay: FACS, mIgG1 on GPC3-positive HepG2 cells, PE anti-mouse IgG (H and L); control mIgG1 median 93.8

Median : PE-A | Binder
8030 | B7
9860 | B8
5630 | B9
6380 | B10

Biological target: T2, full-length human GPC3 over-expressed on SK-Hep1-GPC3 cells (human, UniProt P51654 25-560)
T2 construct: also called GPC3 over-expressing SK-Hep1 cells
Assay: FACS, GPC3A L2K on SK-Hep1-GPC3 cells, APC anti-His; same L2K on GPC3-negative SK-Hep1 median 61.6
Method: Cells were then washed once with PBS. APC-conjugated anti-His tag mouse antibody (R&D Systems) was added to the washed cells in a volume of 100 μl, at 20-fold dilution of 5% FBS in PBS and 0.05% NAN₃ and incubated for 1 hour at 4° C. in the dark. The cells were then washed twice with PBS. The cells were fixed in 3-fold dilution of fixation buffer (BioLegend) in PBS in a volume of 150 μl.

Median : APC-A | Binder
445 | B1
677 | B2

Biological target: T3, biotinylated recombinant human GPC3(560) (human, biotin on the C-terminal BirA substrate peptide ; Biotin on a lysine of the C-terminal BirA substrate peptide, which is not in the letters.)
T3 construct: Made in E. coli BL21 (pET-27b) from inclusion bodies and biotinylated with BirA; also called bt-GPC3(560); soluble bt-GPC3(560) protein
Assay: SPR, Biacore X100, single-cycle kinetics, bt-GPC3(560) captured on chip, 1:1 model
Method: All of the proteins used in the assay were diluted in HBS-E buffer prior to use. Briefly, 5-10 μg/ml of bt-GPC3₍₅₆₀₎ was immobilized onto a sensor chip pre-functionalized with CAPture Reagent and injected onto the flow cell. Affinity of the L2K bispecific antibodies for immobilized antigen was measured by injection of the various bispecific antibodies at 0.3-5 mg/ml with a 90 second association phase followed by a 90 second dissociation phase at a flow rate of 30 μl/min. At the end of each run, the surface of the sensor chip was regenerated using the reagents provided in the Biotin CAPture kit. Binding constants were determined by nonlinear regression analysis using a 1:1 binding model (BIACORE™ X-100 evaluation software, FIGS. 15A and 15B). The association-on-rate-kₒₙ, affinity constant-kₐ, dissociation constant-kd, and equilibrium dissociation constant-Kd were then calculated for each L2K clone (Table 14).

Kd | koff | kon | Binder
3.5 nM | 0.0014 s⁻¹ | 400000 M⁻¹ s⁻¹ | B3
3.5 nM | 0.000455 s⁻¹ | 128000 M⁻¹ s⁻¹ | B4
5.1 nM | 0.00289 s⁻¹ | 567000 M⁻¹ s⁻¹ | B5
2.3 nM | 0.00161 s⁻¹ | 705000 M⁻¹ s⁻¹ | B6

Biological target: T1, cell surface-bound human GPC3 on GPC3+ …
Assay: FACS titration on GPC3+ HepG2 cells, anti-His detection
Method: as §1

EC50 | Binder
0.11 µg/mL | B3
0.12 µg/mL | B4
0.048 µg/mL | B5
0.045 µg/mL | B6
